B1: ESRRA (parent)
chain: LGVAQRSLPLQDELAFAEDLVLDE
B2: LMNB1 (parent)
chain: LYKEELEQTYHAKLENARLSSEMN

Variants of: B1
Test: protein stability index of a GFP-peptide fusion (GPS, HEK-293T) (PSI 1-6); higher = more stable
Details: c terminus: a fixed tail appended
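Note: lentivirally expressed fusions sorted by FACS into six bins by GFP to DsRed ratio, PSI derived from sequencing read proportions per bin multiplied by bin number.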

Protein stability index: each site, then its substitutions
E18: P 4.64; R 5.04; L 2.89
A15: V 4.41; E 4.74; Q 3.65
P9: W 3.21; H 3.69; E 3.45; K 3.07; G 2.64; T 4.04
Q5: M 2.91; N 2.63; S 4.29; H 2.71
L14: F 5.55; T 5.5; K 5.15; W 4.37; R 5.33; C 5.43
S7: A 3.38; N 2.46; C 2.4; Y 2.37; V 2.94; Q 3.18; F 2.32
A17: K 5.25; Y 3.39; E 5.09; S 4.49; V 4.77; C 4.9
V3: W 2.82; S 2.64; T 2.92
L1: S 3.75; E 4.04; V 2.8; F 2.81; D 4.27; Q 3.21; K 2.34
E13: K 4.95; S 4.45; M 3.16; L 2.5; F 3.12; R 4.62
D19: C 1.82; S 2.21; T 1.91
R6: V 3.09; P 3.62; A 3.14; G 2.56; L 2.34; N 2.64
L8: D 4.91; F 2.33; M 3.25; W 3.63
A4: G 2.41; Y 2.1
V21: G 5.31; L 3.96; M 4.49; F 4.63; C 4.31; P 5.27; H 5.28
L20: C 2.51; D 5.36; Q 4.21; H 4.81; Y 4.67; V 3.67; P 5.75; M 2.16
D23: I 1.51; E 2.65; M 2.01; P 4.49
G2: V 2.34; A 3.14; M 2.36; P 3.92; F 1.87
D12: Q 1.7; F 1.46; L 1.88; C 1.92; A 3.13
Q11: M 3.65; R 2.94
L10: T 5.47; H 5.26; M 3.54; K 5.21; I 4.7; D 5.42
L22: T 5.18; A 3.96; P 5.34; F 3.95; V 4.14; G 5.51
F16: Y 2.93; E 3.61; P 5.83; S 4.66; K 3.43; D 3.47; H 3.46
E24: F 2.42; R 3.38; I 3.34; S 3.13; M 2.95; A 1.89

Variants of: B2
Test: as above
Details: c terminus: a fixed tail appended

Protein stability index of substitutions, site by site:
H11: A 3.81; D 4.95; S 4.06; K 2.4; E 4.71; T 4.16; M 3.45; P 3.91; R 2.88; Q 4.24; F 3.29; I 3.12; N 3.14; C 3.73; W 3.08; Y 2.48; V 3.53; L 2.84
A12: I 2.87; D 4.61; C 2.09; H 3.71; E 4.72; G 3.44
E5: I 1.82; D 3.01; G 2.46; N 2.53; H 2.27; P 3.1; A 2.28; Y 3.37; Q 1.54; K 3.09; F 2.28; M 2.42; C 2.32; T 1.83; S 2.4; W 1.37; R 1.76; L 3.89; V 2.77
L6: N 4.57; C 3.8; A 4.29; D 4.72; Q 5.03; T 4.75; V 4.34; H 4.26; I 3.46; E 4.49; K 4.4; Y 4.48; P 4.39; M 4.03; G 3.81; S 4.7; W 4.74; F 3.21; R 4.38
Q8: P 3.84; V 2.09; Y 2.45; L 2.38; F 2.09; A 2.19; D 3.46; E 3.15; I 2.52; R 2.81; C 2.86; H 2.08; W 1.71; K 2.49; N 2.8; S 2.56; T 3.21; M 2.5
E4: I 2.02; H 2.94; W 1.55; S 2.94; D 2.69; Q 2.56; R 2.51; Y 2.08; F 2.37; T 3.06; A 2.7; L 2.17; M 2.18; K 2.46; P 3.68; G 2.38; N 3.27; V 2.97; C 2.38
L1: P 4.45; R 2.91; T 2.85; Y 3.24; Q 3.6; C 3.14; M 3.06; I 2.5; K 2.97; H 3.19; S 2.9; F 2.27; G 3.53; D 4.03; W 2.21; N 2.98; E 3.99; V 2.75; A 2.92
T9: W 3.65; Y 3.31; H 2.7; I 2.6; M 2.65; F 2.57; A 3.59; Q 3.77; C 3.12; R 3.64; E 4.24; V 2.61; K 3.1; P 4.23; L 2.16; S 3.92; N 3.88; D 4.61
Y10: E 5.55; A 4.25; I 4.17; T 4.66; M 4.27; F 3.67; V 4.49; W 2.63; S 4.49; H 4.8; C 4.16; R 4.48; K 5.14; N 4.67; L 4.23; D 4.97; Q 4.79; G 4.52; P 4.4
Y2: H 4; D 4.18; Q 4.21; F 1.96; V 1.77; N 3.46; M 2.31; W 1.5; S 4.12; L 3.04; T 4.08; E 4.37; A 2.91; P 3.06; G 4.15; R 3.48; I 2.09; C 2.78; K 3.27
K3: F 1.77; M 1.7; L 1.79; P 3.09; H 2.91; T 2.81; E 2.47; Y 2.34; R 2.9; Q 2.56; C 2.64; A 1.94; W 1.61; N 3.29; S 2.65; D 3.56; I 2.19; V 1.67; G 2.73
E7: Y 2.38; P 3.35; T 3.26; R 3.44; H 2.53; M 2.07; A 2.47; K 2.77; Q 3.4; L 3.17; F 1.83; W 2.34; C 2.11; D 3.52; I 2.84; G 3.23; N 3.38; V 3.05; S 2.72
